According to patent US20070207967:

Columns and labels:
[1] = test system: PPC peptide, soluble recombinant 18-mer ADGACGYGRFSPPCGAAG
[2] = target: recombinant soluble human uPAR (suPAR) (UniProt Q03405)
recombinant soluble human uPAR (suPAR), sequence (Q03405 whole entry, looked up, tested part not stated): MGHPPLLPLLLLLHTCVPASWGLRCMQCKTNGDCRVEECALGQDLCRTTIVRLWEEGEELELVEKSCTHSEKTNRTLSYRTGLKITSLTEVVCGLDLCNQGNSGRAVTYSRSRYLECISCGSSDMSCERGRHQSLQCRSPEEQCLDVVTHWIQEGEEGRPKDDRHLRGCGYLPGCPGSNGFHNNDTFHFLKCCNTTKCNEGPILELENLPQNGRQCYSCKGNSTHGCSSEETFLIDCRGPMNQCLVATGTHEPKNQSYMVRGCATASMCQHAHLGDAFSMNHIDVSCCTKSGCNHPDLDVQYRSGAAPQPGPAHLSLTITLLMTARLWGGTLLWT

trypsin-activated MMP-9, sequence (chain, as listed by the source): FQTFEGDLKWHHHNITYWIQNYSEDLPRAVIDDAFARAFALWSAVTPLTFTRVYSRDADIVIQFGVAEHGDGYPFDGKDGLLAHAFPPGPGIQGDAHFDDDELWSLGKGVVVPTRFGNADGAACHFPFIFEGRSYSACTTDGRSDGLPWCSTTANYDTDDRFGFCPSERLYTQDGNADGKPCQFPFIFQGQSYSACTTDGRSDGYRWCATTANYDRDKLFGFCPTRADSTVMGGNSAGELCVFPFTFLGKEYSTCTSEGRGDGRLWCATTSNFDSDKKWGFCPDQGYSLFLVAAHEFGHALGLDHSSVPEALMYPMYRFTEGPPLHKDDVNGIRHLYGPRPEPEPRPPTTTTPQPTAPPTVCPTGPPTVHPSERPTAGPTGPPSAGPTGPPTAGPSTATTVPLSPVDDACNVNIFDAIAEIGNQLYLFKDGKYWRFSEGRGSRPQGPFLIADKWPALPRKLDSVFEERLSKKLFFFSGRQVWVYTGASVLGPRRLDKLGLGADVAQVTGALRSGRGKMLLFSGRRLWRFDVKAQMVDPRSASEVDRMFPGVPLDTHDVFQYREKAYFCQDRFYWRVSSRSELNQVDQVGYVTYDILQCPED

## trypsin-activated MMP-9
[1]
  gelatin degradation assay (enzymatic activity, biotinylated gelatin substrate): PPC inhibited both MMP-9 and MMP-2 activity
[2]
  cleavage of soluble uPAR in vitro (western blot): MMP-9 cleaved the domain 1 (D1) from uPAR similarly as chymotrypsin does
